From article PMC11417369, “DNA sequence and chromatin differentiate sequence-specific transcription factor binding in the human malaria parasite Plasmodium falciparum”

T1: SIP2 D1 (Plasmodium falciparum, UniProt C6KSN9 177-235)
T1 sequence: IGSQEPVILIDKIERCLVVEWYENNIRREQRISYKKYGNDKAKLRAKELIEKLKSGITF


What was measured:
[1] = molecular target: T1, SIP2 D1; assay: gcPBM; about 25 ug protein; PBS, 1% milk, 0.2 mg/ml BSA, salmon testes DNA, 0.03% Triton X-100; settings: tags: N-terminal GST (pGEX-4T-1), kept; label: surface-attached array probe
[2] = molecular target: AP2-I D3 (Plasmodium falciparum, UniProt Q8IJW6 910-1027); assay: as above; settings: tags: N-terminal GST (pGEX-4T-1), kept; label: surface-attached array probe

Binder	binding signal [1]	binding signal [2]
GTGCAC_site10664 (dsDNA) DNA 1: TATTCATATTTAAAGGTGCAATATTTATTTTGTACA DNA 2: TGTACAAAATAAATATTGCACCTTTAAATATGAATA	9.97 ln median PBM intensity, better of two orientations	11.2 ln median PBM intensity, better of two orientations
GTGCAC_negctrl_site688 (dsDNA) DNA 1: ATAATTATTTAATATATATATATTATTTCGAATGTT DNA 2: AACATTCGAAATAATATATATATATTAAATAATTAT		7.24 ln median PBM intensity, better of two orientations
GTGCAC_negctrl_site374 (dsDNA) DNA 1: TTTCCGGTAATATGGAGATATATGTGGGTTTTTTTT DNA 2: AAAAAAAACCCACATATATCTCCATATTACCGGAAA		7.18 ln median PBM intensity, better of two orientations
GTGCAC_negctrl_site327 (dsDNA) DNA 1: GCACACATATAATTAAACATATATTTGTATTATTTT DNA 2: AAAATAATACAAATATATGTTTAATTATATGTGTGC		7.22 ln median PBM intensity, better of two orientations
GTGCAC_negctrl_site334 (dsDNA) DNA 1: TTTTTAATTAACTTTTTATAAATAAATAAAAATATA DNA 2: TATATTTTTATTTATTTATAAAAAGTTAATTAAAAA		7.2 ln median PBM intensity, better of two orientations
GTGCAC_negctrl_site197 (dsDNA) DNA 1: TTTTTAAAAAAGATAAGCGAAAGAATTAATTTTTAA DNA 2: TTAAAAATTAATTCTTTCGCTTATCTTTTTTAAAAA		7.16 ln median PBM intensity, better of two orientations
GTGCAC_negctrl_site659 (dsDNA) DNA 1: TTGTTAATATGATAAAAGAGGAATATTCTCTTCCTA DNA 2: TAGGAAGAGAATATTCCTCTTTTATCATATTAACAA	6.7 ln median PBM intensity, better of two orientations	6.7 ln median PBM intensity, better of two orientations
GTGCAC_negctrl_site606 (dsDNA) DNA 1: TTTAATTTTACATGAGAAACATATTACAATAAAATA DNA 2: TATTTTATTGTAATATGTTTCTCATGTAAAATTAAA		7.18 ln median PBM intensity, better of two orientations
GTGCAC_negctrl_site608 (dsDNA) DNA 1: TAATGAGGAAAAAGTGTGTTAAGATTTTATAATTTA DNA 2: TAAATTATAAAATCTTAACACACTTTTTCCTCATTA		7.28 ln median PBM intensity, better of two orientations
GTGCAC_negctrl_site563 (dsDNA) DNA 1: ATTCAATAATTGTTTTTTTTCTTTTTGTTTTTGTTT DNA 2: AAACAAAAACAAAAAGAAAAAAAACAATTATTGAAT	6.64 ln median PBM intensity, better of two orientations	6.85 ln median PBM intensity, better of two orientations
GTGCAC_negctrl_site247 (dsDNA) DNA 1: TGTTTATAAATATAAAAAAATATATATATATATTAT DNA 2: ATAATATATATATATATTTTTTTATATTTATAAACA		7.14 ln median PBM intensity, better of two orientations
GTGCAC_negctrl_site106 (dsDNA) DNA 1: AAATAAAATAATTATAATACTAAAAATAATACATAA DNA 2: TTATGTATTATTTTTAGTATTATAATTATTTTATTT		7.24 ln median PBM intensity, better of two orientations
GTGCAC_negctrl_site296 (dsDNA) DNA 1: ATTTAAAATAGAAGTTATATTTATATGGGTGAAAAA DNA 2: TTTTTCACCCATATAAATATAACTTCTATTTTAAAT		7.29 ln median PBM intensity, better of two orientations
GTGCAC_negctrl_site86 (dsDNA) DNA 1: ATTTTTTTATACAATTTTATATATTAAATATTATAA DNA 2: TTATAATATTTAATATATAAAATTGTATAAAAAAAT		7.23 ln median PBM intensity, better of two orientations
GTGCAC_negctrl_site721 (dsDNA) DNA 1: GTTTTAAAATTAAATATTATGGCATAATTCAAGAAA DNA 2: TTTCTTGAATTATGCCATAATATTTAATTTTAAAAC		7.22 ln median PBM intensity, better of two orientations
GTGCAC_negctrl_site174 (dsDNA) DNA 1: AAGAAAAAAAAAAAAAAAAAAAAAAAAAAGGAAAAA DNA 2: TTTTTCCTTTTTTTTTTTTTTTTTTTTTTTTTTCTT		7.21 ln median PBM intensity, better of two orientations
GTGCAC_negctrl_site349 (dsDNA) DNA 1: AAATAAAAATAAAATAAAATAAAATTAAATGGGAAT DNA 2: ATTCCCATTTAATTTTATTTTATTTTATTTTTATTT		7.26 ln median PBM intensity, better of two orientations
GTGCAC_negctrl_site469 (dsDNA) DNA 1: AACAAAGGATTTATATATACATACATACATACATAA DNA 2: TTATGTATGTATGTATGTATATATAAATCCTTTGTT		7.14 ln median PBM intensity, better of two orientations
GTGCAC_negctrl_site84 (dsDNA) DNA 1: TTGAGCATAAAATTTGGAAACCTCAATCGGACAAAA DNA 2: TTTTGTCCGATTGAGGTTTCCAAATTTTATGCTCAA	6.59 ln median PBM intensity, better of two orientations	6.92 ln median PBM intensity, better of two orientations
GTGCAC_negctrl_site277 (dsDNA) DNA 1: TTTTTTAAATATTATTTTTATGAGTAAATATATTAT DNA 2: ATAATATATTTACTCATAAAAATAATATTTAAAAAA		7.22 ln median PBM intensity, better of two orientations
GTGCAC_negctrl_site271 (dsDNA) DNA 1: TTGTTAATAAATAAATAAATAAATATATTTATATAT DNA 2: ATATATAAATATATTTATTTATTTATTTATTAACAA		7.14 ln median PBM intensity, better of two orientations

Binder	binding signal [1]	binding signal [2]
GTGCAC_negctrl_site517 (dsDNA) DNA 1: TTTTGAAGTAACAAATAAATAAATAAATATATAAAA DNA 2: TTTTATATATTTATTTATTTATTTGTTACTTCAAAA		7.16 ln median PBM intensity, better of two orientations
GTGCAC_negctrl_site529 (dsDNA) DNA 1: TTATTATATATGTTCACATAAATACATAAATATATA DNA 2: TATATATTTATGTATTTATGTGAACATATATAATAA		7.24 ln median PBM intensity, better of two orientations
GTGCAC_site9498 (dsDNA) DNA 1: ATTTGTGATTTGTGTGTGCACGTATTTACAGAACAA DNA 2: TTGTTCTGTAAATACGTGCACACACAAATCACAAAT	9.78 ln median PBM intensity, better of two orientations	10.7 ln median PBM intensity, better of two orientations
GTGCAC_negctrl_site578 (dsDNA) DNA 1: TTTTATTTTATTCAATTTTTACTTTTATAAAAATAT DNA 2: ATATTTTTATAAAAGTAAAAATTGAATAAAATAAAA		7.27 ln median PBM intensity, better of two orientations
GTGCAC_negctrl_site384 (dsDNA) DNA 1: TTATAATGAAATATATTCTTATTCTTTTTTTTTTTT DNA 2: AAAAAAAAAAAAGAATAAGAATATATTTCATTATAA	6.7 ln median PBM intensity, better of two orientations	7.14 ln median PBM intensity, better of two orientations
GTGCAC_negctrl_site8 (dsDNA) DNA 1: TTTTGTAGCAAAAAATAGGAAAAAAAAAAATTAAAT DNA 2: ATTTAATTTTTTTTTTTCCTATTTTTTGCTACAAAA		7.26 ln median PBM intensity, better of two orientations
GTGCAC_negctrl_site41 (dsDNA) DNA 1: TCTTGATACAAACATTTAAATAAATAAATAAAAAAA DNA 2: TTTTTTTATTTATTTATTTAAATGTTTGTATCAAGA		7.16 ln median PBM intensity, better of two orientations
GTGCAC_negctrl_site292 (dsDNA) DNA 1: TTACGTATGTATTATGTTGTATATGAAATTAAAAAA DNA 2: TTTTTTAATTTCATATACAACATAATACATACGTAA		7.28 ln median PBM intensity, better of two orientations
GTGCAC_negctrl_site567 (dsDNA) DNA 1: AATATAAACATAGATAGATAAATAAATAAATAAACA DNA 2: TGTTTATTTATTTATTTATCTATCTATGTTTATATT		7.22 ln median PBM intensity, better of two orientations
GTGCAC_negctrl_site258 (dsDNA) DNA 1: AATATTTTGTTATTTATTTAATCTAATATTATGATA DNA 2: TATCATAATATTAGATTAAATAAATAACAAAATATT	6.61 ln median PBM intensity, better of two orientations	6.98 ln median PBM intensity, better of two orientations
GTGCAC_negctrl_site586 (dsDNA) DNA 1: ATATGATTATTATTATATAAATTATAAAGTCTAATA DNA 2: TATTAGACTTTATAATTTATATAATAATAATCATAT	6.69 ln median PBM intensity, better of two orientations	6.95 ln median PBM intensity, better of two orientations
GTGCAC_negctrl_site127 (dsDNA) DNA 1: ATATATACATATACTATATCTTTTATTTTTATTATT DNA 2: AATAATAAAAATAAAAGATATAGTATATGTATATAT		7.2 ln median PBM intensity, better of two orientations
GTGCAC_negctrl_site223 (dsDNA) DNA 1: AAAAGATTAAGTAGAATAATGTTCTTTCCCAACATA DNA 2: TATGTTGGGAAAGAACATTATTCTACTTAATCTTTT	6.44 ln median PBM intensity, better of two orientations	7.05 ln median PBM intensity, better of two orientations
GTGCAC_negctrl_site43 (dsDNA) DNA 1: ATTTATAAAATATAATTACATTTTTAAATAATAAAA DNA 2: TTTTATTATTTAAAAATGTAATTATATTTTATAAAT	6.72 ln median PBM intensity, better of two orientations	7.13 ln median PBM intensity, better of two orientations
GTGCAC_site9800 (dsDNA) DNA 1: AATCATATTAGTATGGTGCAATATATATATAAATAT DNA 2: ATATTTATATATATATTGCACCATACTAATATGATT	9.96 ln median PBM intensity, better of two orientations	12 ln median PBM intensity, better of two orientations
GTGCAC_negctrl_site454 (dsDNA) DNA 1: AAAAAAAAAGTATATATATATTTAAGGAATTCTCTC DNA 2: GAGAGAATTCCTTAAATATATATATACTTTTTTTTT		7.18 ln median PBM intensity, better of two orientations
GTGCAC_site10258 (dsDNA) DNA 1: GCGTGTGTACAATGAGTGCATATCTAAAGGGAAGAT DNA 2: ATCTTCCCTTTAGATATGCACTCATTGTACACACGC	9.38 ln median PBM intensity, better of two orientations	10 ln median PBM intensity, better of two orientations
GTGCAC_negctrl_site216 (dsDNA) DNA 1: GGTAGATTATTATTAACGAAAAATGTTTTTAACATA DNA 2: TATGTTAAAAACATTTTTCGTTAATAATAATCTACC		7.18 ln median PBM intensity, better of two orientations
GTGCAC_negctrl_site497 (dsDNA) DNA 1: TATATAATATATATTTTATATTTGTAATAATTTTTT DNA 2: AAAAAATTATTACAAATATAAAATATATATTATATA		7.15 ln median PBM intensity, better of two orientations
GTGCAC_negctrl_site403 (dsDNA) DNA 1: TATTTCATCTTTTAAGAAGGTACCCATATGTCATAT DNA 2: ATATGACATATGGGTACCTTCTTAAAAGATGAAATA		7.27 ln median PBM intensity, better of two orientations
